Values quoted from earlier work, collected in article PMC8364556.

Target: IL-10R complex (Homo sapiens) (UniProt Q13651)
Sequence (Q13651 22-235, chain 1 of 2): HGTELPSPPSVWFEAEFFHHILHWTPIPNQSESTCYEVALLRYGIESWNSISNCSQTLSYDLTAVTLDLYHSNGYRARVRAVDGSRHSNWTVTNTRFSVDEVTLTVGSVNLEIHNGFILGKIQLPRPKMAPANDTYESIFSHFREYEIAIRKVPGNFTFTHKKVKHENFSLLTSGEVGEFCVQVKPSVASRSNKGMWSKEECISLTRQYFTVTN
Sequence (Q08334 20-220, chain 2 of 2, further chain): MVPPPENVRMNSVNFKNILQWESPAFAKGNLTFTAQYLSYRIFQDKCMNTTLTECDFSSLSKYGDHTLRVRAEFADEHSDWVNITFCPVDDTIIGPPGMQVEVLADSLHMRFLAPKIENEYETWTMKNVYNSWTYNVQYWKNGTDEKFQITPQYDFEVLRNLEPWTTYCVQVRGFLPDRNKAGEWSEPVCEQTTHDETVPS

IL-10, sequence (P22301 19-178): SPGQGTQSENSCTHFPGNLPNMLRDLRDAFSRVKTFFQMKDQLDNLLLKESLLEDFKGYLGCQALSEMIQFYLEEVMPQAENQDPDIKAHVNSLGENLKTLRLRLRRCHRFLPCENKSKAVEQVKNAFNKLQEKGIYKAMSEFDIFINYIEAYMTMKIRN

For IL-10 (from UniProt P22301), the Kd is listed as 0.56 nM.
